{"source": "paper PMC4344348", "about": "“Quantitative Analysis of Ligand-EGFR Interactions: A Platform for Screening Targeting Molecules” (PLoS ONE, 2015)", "binders": {"B1": {"name": "Peptide GE11 (peptide)", "peptide": "YHWYGYTPQNVI", "notes": "In solution for SPR; for AFM coupled to succinimide-modified silicon nitride tips; source: synthetic peptide, custom synthesized by Millipore"}}, "biological_target": "T1, Epidermal growth factor receptor (UniProt P00533 25-645)", "T1 construct": "Epidermal growth factor receptor (EGFR), bought from Sigma-Aldrich; Coupled by its amines to the dextran of a CM5 chip (about 12,000 RU) for both SPR and AFM; also called EGFR; source: bought: Sigma-Aldrich", "experiment": "SPR; Biacore X; EGFR amine-coupled to a CM5 chip, ligands flowed over; room temperature; running buffer PBS; flow 10 ul/min; regeneration 50 mM NaOH; channel without EGFR as control; EGF 0.25-4 uM, GE11 10-160 uM; KD from BIAEvaluation software", "settings": "both partners purified", "data": [{"binder": "B1", "values": [{"measurement": "Kd", "value": 459, "unit": "µM"}]}]}
